Key:
[1] = target: T1, postfusion RSV F ectodomain (F ΔFP), subtype A (respiratory syncytial virus subtype A, UniProt P03420 26-109; P03420 147-524); experiment: BLI, IgG on sensor
T1 construct: extracellular domain; also called Postfusion subtype A
Protocol: (§1) IgG binding to DS-Cav1 and FA FP was determined by BLI measurements using a FortéBio Octet HTX instrument (Pall Life Sciences). […] Data was analyzed using the ForteBio Data Analysis Software 7. The data was fit to a 1:1 binding model to calculate an association and dissociation rate, and KD was calculated using the ratio kd/kₐ.

[2] = target: T2, postfusion RSV F ectodomain, subtype B (respiratory syncytial virus subtype B); experiment: BLI, IgG on sensor
T2 construct: extracellular domain; also called Postfusion subtype B
Protocol: as §1

[3] = target: RSV F protein of subtype A strain A2, on virus (respiratory syncytial virus subtype A …, UniProt P03420 26-574); experiment: cell-based or functional assay
[4] = target: RSV F protein of subtype B strain 18537, on virus (respiratory syncytial virus subtype B …, UniProt P13843 26-574); experiment: cell-based or functional assay
[5] = target: T3, prefusion-stabilized RSV F ectodomain (DS-Cav1), subtype B (respiratory syncytial virus subtype B); experiment: BLI, IgG on sensor
T3 construct: extracellular domain; also called Prefusion subtype B
Protocol: as §1

Binder	Kd [1]	Kd [2]	Neut IC50 (ug/ml) subtype A [3]	Neut IC50 (ug/ml) subtype B [4]	Kd [5]
ADI-15576 (antibody, V domains shown, IgG; also called Antibody Number 146) VH: QVQLVQSGAAVKKPGESLKISCKGFGYSFTKYWIGWVRQVPGKGLEWIGIISPTDSNTRYSPSFRGQVTMSADKSISAAYLQWSSLKASDTAMYYCARHSSPYSSGWYGDTYFFDSWGQGTLVTVSS VL: QPVLTQPPSASGTPGQRVTISCSGSNSNIGTNTVNWYQQLPGTAPKVLIHNNNERPSGVPDRFSGSKSGTSASLAISGLQSEDEADYYCAAWDDSLRGYVFGTGTKVTVL	237 pM	179 pM	6.08 µg/mL	9.86 µg/mL	
ADI-15651 (antibody, V domains shown, IgG) VH: EVQLVESGPALVKPTQTLTLTCTVSGGVERMSVSWVRQPPGKALEWLARIDWDDDKYYNTFLKTRLTISKGTSKNEVVLTMTNMDPEDTAIYYCARTNRYDKSGYYLYYLDYWGQGTLVTVSS VL: DIQMTQSPSSLSASVGDKVTITCRASQTIASYVNWYQQHPGKAPKLLIYLASRLQSGAPSRFSGSGSGTDFTLTILNLQPEDFATYYCQQSYSSFFTFGPGTKVEIK	230 pM	453 pM	1.6 µg/mL	3.29 µg/mL	2080 pM
ADI-15660 (antibody, V domains shown, IgG) VH: EVQLVQSGTEVKKPGESLKISCKASGYSSFPNWIGWVRQMPGKGLEYMGSIFPDDSNTRYSPSFRGLVAISADKSLRTAYLQWSSLKASDSAIYYCARGPFPHYFDSWGQGTLVTVSS VL: NFMLTQPHSVSESPGKTVTISCTRSSGSIARNYVQWYQQRPGSSPTTVIYEDDQRPPGVPDRFSGSIDSSSNSASLTISGLQTEDEADYYCQSYDPTNQNVFGTGTKLTVL	98 pM	105 pM	17.3 µg/mL	> 10 µg/mL	890 pM
ADI-15561 (antibody, V domains shown, IgG; also called Antibody Number 132) VH: QVQLVQSGAEVKKPGSSVKVSCKASGGTFSSYAINWVRQAPGQGLEWMGGIIPAFGTTIYAQRFQDRVTITADKSTSTAYMELRSLRSEDTAVYYCARSPPFWSDYSRGWFDPWGQGTLVTVSS VL: ETTLTQSPSALSASVGDRVTITCRASQTISGYLNWYQQKPGKAPKLLIYAASSLQSGVPSRFSGSSAGTDFTLSISNLQPEDFATYYCQQSYTTPWTFGQGTKVEIK	591 pM	1080 pM	5.63 µg/mL	22.4 µg/mL	8620 pM
ADI-15659 (antibody, V domains shown, IgG; also called Antibody Number 223) VH: QVQLVQSGAEVKKPGSSVKVSCKASGGTFSTYGISWVRQAPGQGLEWMGRVIPMFGTATYAQKFQDRVTITADKATSTAYMELNSLRSDDTAVYYCARCPPFEGVRPPWFDPWGQGTLVTVSS VL: SYELTQPPSVSVAPGRTAKITCGGYNIGNKRVHWYRQRPGQAPVLIVYDNADRPSGIPERFSGSNSGNTATLTISNVAAGDEADYHCQVWETSSDHPVFGGGTKLTVL	1130 pM	3660 pM	> 10 µg/mL	> 10 µg/mL	11000 pM
ADI-15645 (antibody, V domains shown, IgG) VH: EVQLLESGGGLVQPGGSLRLSCAASGFTFSSYAMSWVRQIPGKGLEWVSTINISGGSTYYADSVKGRFTISRDNSRDTVFLQMNGLRAEDTALYYCARGYHIDWFDFWGQGTLVTVSS VL: DIVLTQTPSSVSASVGDRVTITCRASQDIGSWLAWYQQKPGKAPQFLIYAASQLQSGVPSRFSGSGSGTDFTLTISSLQPEDFATYYCQQAKSLPRTFGGGTKVDIK	367 pM	352 pM	> 10 µg/mL	> 10 µg/mL	4600 pM
ADI-15619 (antibody, V domains shown, IgG) VH: QVQLVQSGAEAKKPGASVKVSCTASGYTFTNDINWVRQATGQGLEWMGWMNPNNGHTGYGQKFEDRVTLTRDSSRSTAYMELSSLRFEDTAVYYCVYNFWSDSSVSWGRGTLVTVSS VL: QSVVTQPPSVSGAPGQSVAISCTGSSSNIGPAYDVHWYQQTPGAAPKLLIYGDSNRPSGVPDRFSTSKSGTSASLAITGLQAEDEADYYCQSFDSSLRGYVFGTGTKVTVL	1760 pM	2210 pM	1.45 µg/mL	0.377 µg/mL	6910 pM
ADI-15612 (antibody, V domains shown, IgG) VH: EVQLLESGGDLVQPGGSLRLSCAASGFPFSSHSMNWVRQAPGKGLEWISYISGGSDTIQYADSVKGRFTISRDNVKNSLYLQMNSLRAEDTAVYYCARDQYIWNYVEPLDYWGQGTLVTVSS VL: DIQMTQSPSSLSASVGDRVTITCRASQDISYYLGWYQQKAGKAPKLLIYAVSNLQTGVPSRFSGSGSGTDFTLTISSLQPEDFATYYCLQDHTCPWTFGQGTKVEIK	416 pM	353 pM	0.053 µg/mL	0.164 µg/mL	157 pM
